Laboratory results as given in publication PMC5958137, “Calreticulin and integrin alpha dissociation induces anti-inflammatory programming in animal models of inflammatory bowel disease” (Nature Communications, 2018).
Counter-ions that a name gives are not always drawn. Blank lines part the entries; values can stand above or below the molecule they belong to. Ends that are not written are not given here. * marks the point of attachment. Biotin = O=C1N[C@H]2[C@H](CS[C@H]2CCCCC(=O)*)N1

Key:
Calreticulin (CRT) [1] = target: T1, Calreticulin (CRT) (Homo sapiens, UniProt P27797); test: 1D 1H NMR ligand line broadening with CRT; […]-HSQC of ITGA4 peptide shows displacement from CRT; assay type: binding; parameters: gene CALR; Human CRT, His-tag fusion protein (pET-19b), expressed in E. coli
T1 sequence (P27797 18-417): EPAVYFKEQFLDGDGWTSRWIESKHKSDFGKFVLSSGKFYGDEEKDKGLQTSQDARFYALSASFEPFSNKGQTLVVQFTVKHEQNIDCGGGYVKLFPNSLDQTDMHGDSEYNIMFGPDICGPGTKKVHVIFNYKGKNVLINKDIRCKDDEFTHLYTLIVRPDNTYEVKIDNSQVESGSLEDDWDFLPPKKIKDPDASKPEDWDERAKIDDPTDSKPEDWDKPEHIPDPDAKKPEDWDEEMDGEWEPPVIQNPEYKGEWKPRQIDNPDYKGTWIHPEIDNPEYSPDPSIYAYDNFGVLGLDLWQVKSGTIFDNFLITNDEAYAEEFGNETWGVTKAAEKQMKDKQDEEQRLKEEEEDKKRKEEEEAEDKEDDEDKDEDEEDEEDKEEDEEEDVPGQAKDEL

Calreticulin (CRT) [2] = target: T1, Calreticulin (CRT); test: cell-free plate assay of biotinylated ITGA peptide (KAGFFKR) binding to purified CRT; supported by GST-CRT pull-down; parameters: gene CALR
[3] = target: T2, Human CRT protein, His-tag fusion protein (pET-19b) (human, UniProt P27797 18-417); test: NMR titration; two-dimensional 15N-HSQC, 4 μM 15N-ITGA4 with 4 μM CRT, 20 mM PB pH 5.5, 10% D2O, 303 K, 700 MHz; conditions: both partners purified
T2 construct: calreticulin (CRT), human; Surmise: pET-19b adds an N-terminal His tag; also called calreticulin; source: E. coli BL21, purified (Ni-NTA agarose, Superdex 75), >90% pure
T2 sequence (looked up): T1 sequence (P27797 18-417)

[4] = target: T3, CRT (>90% pure) used for surface plasmon resonance (human, UniProt P27797 18-417); test: SPR
T3 chain: T1 sequence (P27797 18-417)

[5] = target: T3, CRT (>90% pure) used for surface …; test: SPR

Molecule: CC1(C)CC(c2ccccc2N2CCN(CC3CC3)CC2)CC(C)(C)C1 [ER-339093-13, 1-(cyclopropylmethyl)-4-[2-(3,3,5,5-tetramethylcyclohexyl)phenyl] piperazine methanesulfonate]
- 1D 1H NMR ligand line broadening with CRT; 15N-HSQC of ITGA4 peptide shows displ (Calreticulin (CRT) [1]): notable line broadening of the ER-339093-13 signal was observed upon the addition of CRT

Molecule: CCCN1CCN(c2ccccc2C2CC(C)(C)CC(C)(C)C2)CC1 [ER-464195-01, 1-propyl-4-[2-(3,3,5,5-tetramethylcyclohexyl)phenyl] piperazine hydrochloride]
- IC50 (Calreticulin (CRT) [2]): 170 nM

Now from value to molecule:

- binding result [3]: binds
B1: uniformly 15N-labeled intracellular domain of ITGA4 (domain or fragment)
chain: KAGFFKRQYKSILQEENRRDSWSYINSKSNDD
modifications: also: uniformly 15N-labeled
notes: intracellular domain of integrin α4 (ITGA4), cloned BamHI-EcoRI into pGEX-2T; Surmise: thrombin cleavage of a pGEX-2T fusion leaves a few residues of the vector at the N-terminus; also called 15N-ITGA4; ITGA4 peptide

- koff [4]: 0.00388 s⁻¹
- Kd [5]: 250 nM
B2: N-terminally biotinylated intracellular domain of the ITGA4 peptide (peptide)
peptide: Biotin-KAGFFKRQYKSILQEENRRDSWSYINSKSNDD
